In patent US20250215105A1, “ANTI-CD39 ANTIBODY” (BrightPath Biotherapeutics Co., Ltd., priority 2022, published 2025):

Molecular target: FcγRIIIa (Human) (UniProt P08637)
Assay: SPR

Sequence of FcγRIIIa (Human) (P08637 17-208 F176V): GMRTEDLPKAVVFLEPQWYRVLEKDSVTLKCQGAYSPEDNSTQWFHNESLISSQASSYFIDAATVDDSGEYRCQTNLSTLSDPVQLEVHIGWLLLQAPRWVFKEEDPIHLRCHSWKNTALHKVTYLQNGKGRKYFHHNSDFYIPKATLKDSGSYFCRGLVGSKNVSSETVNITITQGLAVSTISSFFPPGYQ

Substance: Mogamulizumab
- Kd: 156 nM
